In general, EC50 refers to the concentration at which the effect is half-maximal. High values mean a need for much substance, low ones an effect from little substance.

This assay concerns the target T1, 16TR-MUC1-Tn (human, UniProt P15941 126-445, limits assumed, Tn glycoform (GalNAcα1-O-Ser/Thr); glycosylated sites of the reagent not stated).
T1 construct: domain: 16TR; also called Tn-MUC1; TnMUC1
In words: Tn-MUC1 binding ELISA (protocol 4), plate-coated 16TR-MUC1-Tn. A general note: An ELISA detects its analyte on a solid surface through an enzyme-linked reagent.

T1 sequence (P15941 126-445 limits assumed): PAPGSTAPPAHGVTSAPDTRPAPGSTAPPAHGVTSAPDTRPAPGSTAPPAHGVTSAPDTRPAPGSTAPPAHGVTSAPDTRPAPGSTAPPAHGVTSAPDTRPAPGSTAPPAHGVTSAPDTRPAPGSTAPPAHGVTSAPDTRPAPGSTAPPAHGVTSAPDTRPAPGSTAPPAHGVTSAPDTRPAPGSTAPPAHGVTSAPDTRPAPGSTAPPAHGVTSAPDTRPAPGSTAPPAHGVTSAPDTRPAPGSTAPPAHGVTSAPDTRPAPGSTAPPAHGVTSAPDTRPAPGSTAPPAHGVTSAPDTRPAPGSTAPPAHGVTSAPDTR

B1: Mouse 5E5 (antibody, V domains shown)
VH: QVQLQQSDAELVKPGSSVKISCKASGYTFTDHAIHWVKQKPEQGLEWIGHFSPGNTDIKYNDKFKGKATLTVDRSSSTAYMQLNSLTSEDSAVYFCKTSTFFFDYWGQGTTLTVSS
VL: DIVMTQSPSSLTVTAGEKVTMICKSSQSLLNSGDQKNYLTWYQQKPGQPPKLLIFWASTRESGVPDRFTGSGSGTDFTLTISSVQAEDLAVYYCQNDYSYPLTFGAGTKLELK
notes: V regions were subcloned into pFUSE-CHIg-hG1 (human IgG1) and pFUSE2-CLIg-hk (human kappa) vectors and expressed in HEK293 cells; also called mouse 5E5 antibody; 5E5VH/5E5VK
B1 came in with an EC50 of 0.0311 µg/mL.

B2: Ab1 (antibody, V domains shown)
VH: QVQLVQSGAEVKKTGSSVKVSCKASGYTFTDHAIHWVRQAPGQALEWMGHFSPGNTDIKYNDKFKGRVTLTVDRSMSTAYMELSSLRSEDTAMYYCKTSTFFFDYWGQGTMVTVSS
VL: DIVMTQSPDSLAVSLGERATINCKSSQSLLNSGDQKNYLTWYQQKPGQPPKLLIYWASTRESGVPDRFSGSGSGTDFTLTISSLQAEDVAVYYCQNDYSYPLTFGQGTKVEIK
notes: Expressed as human IgG1/kappa from pFUSE-CHIg-hG1 and pFUSE2-CLIg-hk vectors; also called 5E5RHA8 / 5E5RKA
For B2, the 50% effective concentration (EC50) is 0.0246 µg/mL. This EC50 and that of the molecule before are within 1.5-fold of each other.

B3: Ab3 (antibody, V domains shown)
VH: EVQLVESGAEVKKPGASVEVSCQASGYTFTDHAIHWVRQAPGQGLEWMGHFSPGNTDIKYNDKFKGRVTMTVDRSINTAYMELRRLRSDDTAVYYCKTSTFFFDYWGQGTMVTVSS
VL: DIVMTQSPDSLAVSLGERATINCKSSQSLLNSGDQKNYLTWYQQKPGQPPKLLIYWASTRESGVPDRFSGSGSGTDFTLTISSLQAEDVAVYYCQNDYSYPLTFGQGTKVEIK
notes: Expressed as human IgG1/kappa from pFUSE-CHIg-hG1 and pFUSE2-CLIg-hk vectors; also called 5E5RHC9 / 5E5RKA
As to B3, the EC50 was found to be 0.0615 µg/mL.

B4: Ab5 (antibody, human IgG1, V domains shown)
VH: EVQLVQSGAEVKKPGESLKISCKISGYIFTDHAIHWVRQMPGKGLEWMGHFSPGNTDIKYNDKFKGQVTLSVDRSINTAYLQWSSLKASDTAIYFCKTSTFFFDYWGQGTRVTVSS
VL: DIVMTQSPLSLPVTPGEPASISCKSSQSLLNSGDQKNYLTWYLQKPGQSPQLLIYWASTRESGVPDRFSGSGSGTDFTLKISRVEAEDVGVYYCQNDYSYPLTFGGGTKVEIK
notes: Expressed as human IgG1/kappa from pFUSE-CHIg-hG1 and pFUSE2-CLIg-hk vectors; also called 5E5RHB10 / 5E5RKB
B4: the EC50 came to 0.0269 µg/mL.

B5: Ab4 (antibody, human IgG1, V domains shown)
VH: QVQLVQSGAEVKKTGSSVKVSCKASGYTFTDHAIHWVRQAPGQALEWMGHFSPGNTDIKYNDKFKGRVTLTVDRSMSTAYMELSSLRSEDTAMYYCKTSTFFFDYWGQGTMVTVSS
VL: DIVMTQSPLSLPVTPGEPASISCKSSQSLLNSGDQKNYLTWYLQKPGQSPQLLIYWASTRESGVPDRFSGSGSGTDFTLKISRVEAEDVGVYYCQNDYSYPLTFGGGTKVEIK
notes: Expressed as human IgG1/kappa from pFUSE-CHIg-hG1 and pFUSE2-CLIg-hk vectors; also called 5E5RHA8 / 5E5RKB
B5 registered an EC50 of 0.0755 µg/mL.

B6: Ab6 (antibody, human IgG1, V domains shown)
VH: EVQLVESGAEVKKPGASVEVSCQASGYTFTDHAIHWVRQAPGQGLEWMGHFSPGNTDIKYNDKFKGRVTMTVDRSINTAYMELRRLRSDDTAVYYCKTSTFFFDYWGQGTMVTVSS
VL: DIVMTQSPLSLPVTPGEPASISCKSSQSLLNSGDQKNYLTWYLQKPGQSPQLLIYWASTRESGVPDRFSGSGSGTDFTLKISRVEAEDVGVYYCQNDYSYPLTFGGGTKVEIK
notes: Expressed as human IgG1/kappa from pFUSE-CHIg-hG1 and pFUSE2-CLIg-hk vectors; also called 5E5RHC9 / 5E5RKB
Molecule B6 returned an EC50 of 0.0198 µg/mL.

B7: Ab2 (antibody, V domains shown)
VH: EVQLVQSGAEVKKPGESLKISCKISGYIFTDHAIHWVRQMPGKGLEWMGHFSPGNTDIKYNDKFKGQVTLSVDRSINTAYLQWSSLKASDTAIYFCKTSTFFFDYWGQGTRVTVSS
VL: DIVMTQSPDSLAVSLGERATINCKSSQSLLNSGDQKNYLTWYQQKPGQPPKLLIYWASTRESGVPDRFSGSGSGTDFTLTISSLQAEDVAVYYCQNDYSYPLTFGQGTKVEIK
notes: Expressed as human IgG1/kappa from pFUSE-CHIg-hG1 and pFUSE2-CLIg-hk vectors; also called 5E5RHB10 / 5E5RKA
With B7, a half-maximal effect (EC50) was put at 0.0345 µg/mL. Against the preceding molecule, the EC50 is about 1.7-fold higher.
